Assay results reported in article PMC3500560 (The Journal of neuroscience : the official journal of the …, 2011).

Key:
SEC-MALS = biological target: the molecule itself; assay: SEC-MALS
cross-linking = biological target: the molecule itself; assay: cross-linking

Protein | stoichiometry N (SEC-MALS) | stoichiometry N (cross-linking)
MBP-LH1 fusion protein (domain or fragment) not shown | 2 | –
His6-tagged SYD-2LH1 (domain or fragment) not shown | – | 2
